Values of other authors, collected in article PMC6502704.
Read-outs that look alike come from different tables or passages of the source.

Experiments:
[1] = molecular target: BMAL1 577-625 (Mus musculus) (UniProt Q9WTL8)
[2] = molecular target: BMAL1 490-625 (Mus musculus) (UniProt Q9WTL8)
[3] = molecular target: BMAL1 577-625 (Mus musculus) (UniProt Q9WTL8); remark: listed apart in the source
BMAL1 TAD (Mus musculus) [4] = molecular target: BMAL1 TAD (Mus musculus) (UniProt Q9WTL8)
BMAL1 TAD (Mus musculus) [5] = molecular target: BMAL1 TAD (Mus musculus) (UniProt Q9WTL8); remark: listed apart in the source

With CRY1 CCT (from UniProt P97784) as the substance, how does the Kd [1] read?
Its Kd is 10 µM.

Which results are given for CRY2 CCT (from UniProt Q9R194)?
Kd [2]: 10 µM; Kd [3]: 10 µM

With CBP KIX (from UniProt P45481) as the substance, how does the Kd (BMAL1 TAD (Mus musculus) [4]) read?
Its Kd is 2 µM.

For CRY1 (from UniProt P97784), which Kd (BMAL1 TAD (Mus musculus) [5]) is on record?
Its Kd is 10 µM.
